Data published in patent publication US20210063414A1, “METHODS FOR PREVENTING AND/OR TREATING BONE LOSS CONDITIONS BY MODULATING IRISIN” (Dana-Farber Cancer Institute, Inc., priority 2018, published 2021).

Legend:
Experiment in all cases: Crosslinking/co-immunoprecipitation/mass spectrometry (TMT quantitative proteomics) to identify irisin receptors
Type in all cases: binding
[1] = target: T1, MLO-Y4 cell surface proteins (Mus musculus, UniProt C0HKE1); conditions: co-precipitated protein Hist1h2ab (H2A1_MOUSE)
T1 construct: endogenous in cells; host or cells: MLO-Y4
Summary of the method: (§1)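 Relative protein abundance came from 6-plex TMT MS3 quantitation on an Orbitrap Fusion Lumos, after in-gel trypsin digestion of Coomassie-stained SDS-PAGE lanes. Input was a Ni-NTA pulldown (250 mM imidazole elution) of lysates from murine MLO-Y4 cells. These cells were treated on ice with His-tagged irisin or adipsin (10 nM, 20 min) in serum-free medium, then crosslinked with 1.5 mM DTSSP for 30 min.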

[2] = target: T2, MLO-Y4 cell surface proteins (Mus musculus, UniProt O35143); conditions: co-precipitated protein Atpif1 (ATIF1_MOUSE)
T2 construct: endogenous in cells; host or cells: MLO-Y4
T2 sequence (O35143 26-106): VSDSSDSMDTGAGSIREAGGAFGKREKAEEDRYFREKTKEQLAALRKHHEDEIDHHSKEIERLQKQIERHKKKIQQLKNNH
Summary of the method: as §1

[3] = target: T3, MLO-Y4 cell surface proteins (Mus musculus, UniProt Q3U1J4); conditions: co-precipitated protein Ddb1 (DDB1_MOUSE)
T3 construct: endogenous in cells; host or cells: MLO-Y4
T3 sequence (Q3U1J4 whole entry): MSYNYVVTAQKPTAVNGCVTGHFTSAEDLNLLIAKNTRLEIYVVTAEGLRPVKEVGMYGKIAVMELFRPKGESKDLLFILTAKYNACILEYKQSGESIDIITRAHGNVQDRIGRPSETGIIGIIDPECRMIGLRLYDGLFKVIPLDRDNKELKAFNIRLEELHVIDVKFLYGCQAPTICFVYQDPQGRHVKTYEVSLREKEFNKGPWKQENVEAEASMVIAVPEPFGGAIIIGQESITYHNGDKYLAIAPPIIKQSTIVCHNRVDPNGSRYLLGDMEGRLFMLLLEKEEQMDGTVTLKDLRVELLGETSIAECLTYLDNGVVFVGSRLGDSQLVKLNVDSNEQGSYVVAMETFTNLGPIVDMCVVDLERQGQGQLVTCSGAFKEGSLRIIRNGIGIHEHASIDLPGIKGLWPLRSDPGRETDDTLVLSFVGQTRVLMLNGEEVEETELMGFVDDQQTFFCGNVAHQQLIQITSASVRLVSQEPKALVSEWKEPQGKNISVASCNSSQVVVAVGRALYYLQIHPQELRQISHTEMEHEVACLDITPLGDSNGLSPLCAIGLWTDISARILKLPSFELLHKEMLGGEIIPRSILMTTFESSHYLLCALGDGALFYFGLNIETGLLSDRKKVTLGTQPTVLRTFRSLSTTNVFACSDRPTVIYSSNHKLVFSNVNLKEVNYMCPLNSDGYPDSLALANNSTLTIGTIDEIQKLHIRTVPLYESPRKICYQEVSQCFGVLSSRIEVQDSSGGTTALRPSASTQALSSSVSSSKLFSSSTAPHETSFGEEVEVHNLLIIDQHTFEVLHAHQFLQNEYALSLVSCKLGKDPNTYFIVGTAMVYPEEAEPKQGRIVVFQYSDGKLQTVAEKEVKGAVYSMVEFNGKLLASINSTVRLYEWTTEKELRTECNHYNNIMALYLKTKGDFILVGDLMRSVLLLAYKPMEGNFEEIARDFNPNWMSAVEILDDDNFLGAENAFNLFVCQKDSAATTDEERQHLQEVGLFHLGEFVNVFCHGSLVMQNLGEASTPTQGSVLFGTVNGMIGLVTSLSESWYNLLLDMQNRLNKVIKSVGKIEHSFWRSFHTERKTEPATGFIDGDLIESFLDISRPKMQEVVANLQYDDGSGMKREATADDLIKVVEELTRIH
Summary of the method: as §1

[4] = target: T4, MLO-Y4 cell surface proteins (Mus musculus, UniProt Q6ZPE2); conditions: co-precipitated protein Sbf1 (MTMR5_MOUSE)
T4 construct: endogenous in cells; host or cells: MLO-Y4
T4 sequence (Q6ZPE2 whole entry): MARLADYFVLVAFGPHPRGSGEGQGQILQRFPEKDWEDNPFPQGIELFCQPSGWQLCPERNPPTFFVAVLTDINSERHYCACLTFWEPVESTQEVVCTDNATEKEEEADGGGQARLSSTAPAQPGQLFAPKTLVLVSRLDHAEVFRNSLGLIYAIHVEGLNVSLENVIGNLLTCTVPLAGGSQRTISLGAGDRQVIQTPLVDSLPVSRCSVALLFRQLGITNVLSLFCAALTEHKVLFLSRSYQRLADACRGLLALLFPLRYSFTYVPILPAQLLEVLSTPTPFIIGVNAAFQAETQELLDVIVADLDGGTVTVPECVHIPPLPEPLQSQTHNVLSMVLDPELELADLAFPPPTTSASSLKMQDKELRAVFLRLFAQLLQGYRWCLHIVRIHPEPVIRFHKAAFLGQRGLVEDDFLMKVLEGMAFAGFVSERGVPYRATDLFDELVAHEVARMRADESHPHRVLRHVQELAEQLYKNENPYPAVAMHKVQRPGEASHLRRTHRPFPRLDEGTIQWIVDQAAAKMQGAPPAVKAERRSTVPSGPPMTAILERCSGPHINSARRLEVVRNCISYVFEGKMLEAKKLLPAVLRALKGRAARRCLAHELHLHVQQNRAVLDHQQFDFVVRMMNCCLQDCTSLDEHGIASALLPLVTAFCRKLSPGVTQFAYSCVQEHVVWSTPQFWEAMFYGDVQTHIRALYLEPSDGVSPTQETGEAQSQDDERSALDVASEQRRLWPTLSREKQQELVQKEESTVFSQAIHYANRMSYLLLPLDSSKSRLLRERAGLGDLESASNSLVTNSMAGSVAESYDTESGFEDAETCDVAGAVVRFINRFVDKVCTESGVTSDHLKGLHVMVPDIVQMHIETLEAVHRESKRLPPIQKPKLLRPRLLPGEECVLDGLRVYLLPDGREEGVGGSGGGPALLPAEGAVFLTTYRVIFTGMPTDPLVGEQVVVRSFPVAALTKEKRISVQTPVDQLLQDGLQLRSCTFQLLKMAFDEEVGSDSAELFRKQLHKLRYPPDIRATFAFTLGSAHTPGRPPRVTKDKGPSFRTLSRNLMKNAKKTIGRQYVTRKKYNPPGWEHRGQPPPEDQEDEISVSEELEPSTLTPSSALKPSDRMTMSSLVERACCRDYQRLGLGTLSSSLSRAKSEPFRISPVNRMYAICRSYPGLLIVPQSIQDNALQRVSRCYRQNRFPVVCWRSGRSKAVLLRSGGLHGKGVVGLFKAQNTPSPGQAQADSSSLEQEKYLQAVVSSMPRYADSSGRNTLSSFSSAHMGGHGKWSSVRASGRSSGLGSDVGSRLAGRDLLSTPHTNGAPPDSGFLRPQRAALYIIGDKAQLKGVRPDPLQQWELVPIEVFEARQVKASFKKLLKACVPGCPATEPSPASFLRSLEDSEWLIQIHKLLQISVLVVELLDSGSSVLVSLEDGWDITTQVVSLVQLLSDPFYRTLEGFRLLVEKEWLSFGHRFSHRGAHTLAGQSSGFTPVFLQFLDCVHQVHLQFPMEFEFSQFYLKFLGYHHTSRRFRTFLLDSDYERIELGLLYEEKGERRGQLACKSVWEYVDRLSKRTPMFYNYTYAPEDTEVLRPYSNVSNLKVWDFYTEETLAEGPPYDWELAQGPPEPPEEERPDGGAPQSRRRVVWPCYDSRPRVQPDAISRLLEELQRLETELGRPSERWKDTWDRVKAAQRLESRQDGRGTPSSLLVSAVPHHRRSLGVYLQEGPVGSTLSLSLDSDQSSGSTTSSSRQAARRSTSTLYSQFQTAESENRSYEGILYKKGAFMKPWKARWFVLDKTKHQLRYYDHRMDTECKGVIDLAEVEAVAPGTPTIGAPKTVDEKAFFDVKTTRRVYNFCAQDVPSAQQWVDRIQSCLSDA
Summary of the method: as §1

[5] = target: T5, MLO-Y4 cell surface proteins (Mus musculus, UniProt Q8BJQ9); conditions: co-precipitated protein Csgalnact1 (CGAT1_MOUSE)
T5 construct: endogenous in cells; host or cells: MLO-Y4
T5 sequence (Q8BJQ9 1-530): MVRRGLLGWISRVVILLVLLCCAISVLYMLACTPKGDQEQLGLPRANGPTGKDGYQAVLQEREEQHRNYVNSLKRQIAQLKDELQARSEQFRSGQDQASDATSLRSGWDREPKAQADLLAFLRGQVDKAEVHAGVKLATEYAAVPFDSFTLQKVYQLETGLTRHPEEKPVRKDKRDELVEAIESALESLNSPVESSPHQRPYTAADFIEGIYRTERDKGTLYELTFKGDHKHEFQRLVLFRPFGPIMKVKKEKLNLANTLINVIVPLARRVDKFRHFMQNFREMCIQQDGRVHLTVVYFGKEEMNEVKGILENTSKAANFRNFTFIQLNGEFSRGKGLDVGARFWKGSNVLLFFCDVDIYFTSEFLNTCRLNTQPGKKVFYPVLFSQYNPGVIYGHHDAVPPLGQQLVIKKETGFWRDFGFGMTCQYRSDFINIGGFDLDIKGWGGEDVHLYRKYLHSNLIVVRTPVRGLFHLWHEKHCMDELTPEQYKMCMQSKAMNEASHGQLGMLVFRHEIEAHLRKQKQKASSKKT
Summary of the method: as §1

TMT signal-to-noise ratio [1]: 273.934
TMT signal-to-noise ratio [2]: 454.155
TMT signal-to-noise ratio [3]: 426.44
TMT signal-to-noise ratio [4]: 71.1304
TMT signal-to-noise ratio [5]: 2426.62
Substance: adipsin
